Results published in the supplement of paper PMC11246515.
± gives the standard deviation of the averaged measurements.

Experiment: total protein half-life in vivo (active degradation + dilution); higher = more stable protein
[1] = E. coli NCM3722 delta-clpP delta-lon delta-hslV, growth: N-lim chemostat, doubling time 6 h
[2] = E. coli NCM3722 delta-clpP, growth: N-lim chemostat, doubling time 6 h
[3] = E. coli NCM3722 delta-hslV, growth: N-lim chemostat, doubling time 6 h
[4] = E. coli NCM3722 delta-lon, growth: N-lim chemostat, doubling time 6 h
[5] = E. coli NCM3722 delta-smpB, growth: N-lim chemostat, doubling time 6 h
[6] = wild type E. coli NCM3722, growth: C-lim chemostat, doubling time 3 h
[7] = wild type E. coli NCM3722, growth: C-lim chemostat, doubling time 6 h
[8] = wild type E. coli NCM3722, growth: C-lim chemostat, doubling time 12 h
[9] = wild type E. coli NCM3722, growth: N-lim chemostat, doubling time 6 h
[10] = wild type E. coli NCM3722, growth: N-lim chemostat, doubling time 12 h
[11] = wild type E. coli NCM3722, growth: P-lim chemostat, doubling time 6 h
[12] = wild type E. coli NCM3722, growth: P-lim chemostat, doubling time 12 h

Sequence	total protein half-life in vivo [1] [h]	total protein half-life in vivo [2] [h]	total protein half-life in vivo [3] [h]	total protein half-life in vivo [4] [h]	total protein half-life in vivo [5] [h]	total protein half-life in vivo [6] [h]	total protein half-life in vivo [7] [h]	total protein half-life in vivo [8] [h]	total protein half-life in vivo [9] [h]	total protein half-life in vivo [10] [h]	total protein half-life in vivo [11] [h]	total protein half-life in vivo [12] [h]
MSFDSLGLSPDILRAVAEQGYREPTPIQQQAIPAVLEGRDLMASAQTGTGKTAGFTLPLLQHLITRQPHAKGRRPVRALILTPTRELAAQIGENVRDYSKYLNIRSLVVFGGVSINPQMMKLRGGVDVLVATPGRLLDLEHQNAVKLDQVEILVLDEADRMLDMGFIHDIRRVLTKLPAKRQNLLFSATFSDDIKALAEKLLHNPLEIEVARRNTASDQVTQHVHFVDKKRKRELLSHMIGKGNWQQVLVFTRTKHGANHLAEQLNKDGIRSAAIHGNKSQGARTRALADFKSGDIRVLVATDIAARGLDIEELPHVVNYELPNVPEDYVHRIGRTGRAAATGEALSLVCVDEHKLLRDIEKLLKKEIPRIAIPGYEPDPSIKAEPIQNGRQQRGGGGRGQGGGRGQQQPRRGEGGAKSASAKPAEKPSRRLGDAKPAGEQQRRRRPRKPAAAQ	4.67 ± 1.2	5.49 ± 0.3	5.007 ± 0.03	5.23 ± 1.5	4.98 ± 0.23	3.12	7.2	14.7 ± 0.98	5.3 ± 0.071	8.71 ± 0.062	4.83 ± 0.43	9.31 ± 0.65
MSFFISDAVAATGAPAQGSPMSLILMLVVFGLIFYFMILRPQQKRTKEHKKLMDSIAKGDEVLTNGGLVGRVTKVAENGYIAIALNDTTEVVIKRDFVAAVLPKGTMKAL [P0ADZ7]	5.95 ± 0.52	6.69 ± 0.75	5.78 ± 0.33	5.892 ± 0.037	6.28 ± 0.31	3.16 ± 0.14	6.018 ± 0.04	11.5 ± 0.56	5.64 ± 0.49	12.8 ± 2	6.55 ± 0.62	13 ± 0.39
MSFSVQETLFSLLQHNAISGHENAVADVMLCEFRRQAKEVWRDRLGNVVARYGSDKPDALRLMIFAHMDEVGFMVRKIEPSGFLRFERVGGPAQVTMAGSIVTLTGDKGPVMGCIGIKSYHFAKGDERTQSPSVDKLWIDIGAKDKDDAIRMGIQVGTPVTLYNPPQLLANDLVCSKALDDRLGCTALLGVADAISTMELDIAVYLVASVQEEFNIRGIVPVLRRVKPDLAIGIDITPSCDTPDLHDYSEVRINQGVGITCLNYHGRGTLAGLITPPRLIRMLEQTALEHNIPVQREVAPGVITETGYIQVEQDGIPCASLSIPCRYTHSPAEVASLRDLTDCIRLLTALAGMSAAHFPVEPDSGTTQEAHPL	> 8	–	–	–	–	3.05 ± 0.28	6.24 ± 0.29	10.9 ± 0.36	–	–	–	10.2
MSGAFNNDGRGISPLIATSWERCNKLMKRETWNVPHQAQGVTFASIYRRKKAMLTLGQAALEDAWEYMAPRECALFILDETACILSRNGDPQTLQQLSALGFNDGTYCAEGIIGTCALSLAAISGQAVKTMADQHFKQVLWNWAFCATPLFDSKGRLTGTIALACPVEQTTAADLPLTLAIAREVGNLLLTDSLLAETNRHLNQLNALLESMDDGVISWDEQGNLQFINAQAARVLRLDATASQGRAITELLTLPAVLQQAIKQAHPLKHVEATFESQHQFIDAVITLKPIIETQGTSFILLLHPVEQMRQLMTSQLGKVSHTFAHMPQDDPQTRRLIHFGRQAARSSFPVLLCGEEGVGKALLSQAIHNESERAAGPYIAVNCELYGDAALAEEFIGGDRTDNENGRLSRLELAHGGTLFLEKIEYLAVELQSALLQVIKQGVITRLDARRLIPIDVKVIATTTADLAMLVEQNRFSRQLYYALHAFEITIPPLRMRRGSIPALVNNKLRSLEKRFSTRLKIDDDALARLVSCAWPGNDFELYSVIENLALSSDNGRIRVSDLPEHLFTEQATDDVSATRLSTSLSFAEVEKEAIINAAQVTGGRIQEMSALLGIGRTTLWRKMKQHGIDAGQFKRRV	6.1 ± 0.41	4.96	3.96	–	4.08 ± 0.059	2.56 ± 0.055	4.31 ± 1	9.42 ± 0.77	4.53 ± 0.17	8.2 ± 0.45	4.11 ± 0.61	7.3 ± 0.38
MSGDILQTPDAPKPQGALDNYFKITARGSTVRQEVLAGLTTFLAMVYSVIVVPGMLGKAGFPPAAVFVATCLVAGFGSLLMGLWANLPMAIGCAISLTAFTAFSLVLGQQISVPVALGAVFLMGVIFTAISVTGVRTWILRNLPMGIAHGTGIGIGLFLLLIAANGVGMVIKNPIEGLPVALGAFTSFPVMMSLLGLAVIFGLEKCRVPGGILLVIIAISIIGLIFDPAVKYHGLVAMPSLTGEDGKSLIFSLDIMGALQPTVLPSVLALVMTAVFDATGTIRAVAGQANLLDKDNQIINGGKALTSDSVSSIFSGLVGAAPAAVYIESAAGTAAGGKTGLTATVVGALFLLILFLSPLSFLIPGYATAPALMYVGLLMLSNVSKLDFNDFIDAMAGLVCAVFIVLTCNIVTGIMLGFVTLVVGRVFAREWQKLNIGTVIITAALVAFYAGGWAI	4.51 ± 0.38	5.04 ± 0.2	5.05	4.88	4.98 ± 0.49	3.28 ± 0.56	4.99 ± 0.19	–	4.98	9.21 ± 0.52	> 8	9.89 ± 0.52
MSGKPAARQGDMTQYGGSIVQGSAGVRIGAPTGVACSVCPGGVTSGHPVNPLLGAKVLPGETDIALPGPLPFILSRTYSSYRTKTPAPVGSLGPGWKMPADIRLQLRDNTLILSDNGGRSLYFEHLFPGEDGYSRSESLWLVRGGVAKLDEGHRLAALWQALPEELRLSPHRYLATNSPQGPWWLLGWCERVPEADEVLPAPLPPYRVLTGLVDRFGRTQTFHREAAGEFSGEITGVTDGAGRHFRLVLTTQAQRAEEARQQAISGGTEPSAFPDTLPGYTEYGRDNGIRLSAVWLTHDPEYPENLPAAPLVRYGWTPRGELAAVYDRSNTQVRSFTYDDKYRGRMVAHRHTGRPEICYRYDSDGRVTEQLNPAGLSYTYQYEKDRITITDSLNRREVLHTQGEGGLKRVVKKEHADGSVTQSQFDAVGRLRAQTDAAGRTTEYSPDVVTGLITRITTPDGRASAFYYNHHSQLTSATGPDGLEIRREYDEWGRLIQETAPDGDITRYRYDNPHSDLPCATEDATGSRKTMTWSRYGQLLSFTDCSGYVTRYDHDRFGQVTAVHREEGLSQYRAYDSRGQLIAVKDTQGHETRYEYNAAGDLTTVIAPDGSRNGTQYDAWGKAICTTQGGLTRSMEYDAAGRVIRLTSENGSHTTFRYDVLDRLIQETGFDGRTQRYHHDLTGKLIRSEDEGLVTHWHYDEADRLTHRTVNGETAERWQYDERGWLTDISHISEGHRVTVHYGYDSKGRLASEHLTVHHPQTNELLWQHETRHAYNAQGLANRCIPDSLPAVEWLTYGSGWLSGMKLGDTPLVEYTRDRLHRETLRSFGRYELTTAYTPAGQLQSQHLNSLLSDRDYTWNDNGELIRISSPRQTRSYSYSTTGRLTGVHTTAANLDIRIPYTTDPAGNRLPDPELHPDSALSMWPDNRIARDAHYLYRYDRHGRLTEKTDLIPEGVIRTDDERTHRYHYDSQHRLVHYTRTQYAEPLVESRYLYDPLGRRVAKRVWRRERDLTGWMSLSRKPQVTWYGWDGDRLTTIQNDRTRIQTIYQPGSFTPLIRVETATGELAKTQRRSLADTLQQSGGEDGGSVVFPPVLVQMLDRLESEILADRVSEESRRWLASCGLTVAQMQSQMDPVYTPARKIHLYHCDHRGLPLALISTEGTTAWYAEYDEWGNLLNEENPHQLQQLIRLPGQQYDEESGLYYNRHRYYDPLQGRYITQDPIGLKGGWNFYQYPLNPISNIDPLGLETLKCIKPLHSMGGTGERSGPDIWGNPFYHQYLCVPDGKGDYTCGGQDQRGESKGDGLWGPGKASNDTKEAAGRCDLVETDNSCVENCLKGKFKEVRPRYSVLPDIFTPINLGLFKNCQDWSNDSLETCKMKCSGNNIGRFIRFVFTGVM	–	–	–	–	–	–	–	–	–	–	–	13.1
